From US20070009529A1, “Agents that dissolve arterial thrombi” (New York University, priority 2002, published 2007)

Assays:
platelets [1] = experiment: Platelet oxidation/fragmentation induced independently of anti-GPIIIa49-66 (DCHF-loaded platelets); format: cell-based
platelets [2] = experiment: Platelet 12(S)-HETE generation; format: cell-based
Description: Recombinant ADAMTS-18 was then made with the expression vector pBudCE4.1 in 293T cells. This peptide induced platelet 12(S)—HETE and oxidation/fragmentation in an identical kinetic fashion as anti-GPIIIa49-66 antibody. Both expressed rADAMTS-18, and HUVEC conditioned media ADAMTS-18 could be activated by thrombin (0.5μ/mL and then neutralized with hirudin), with optimum effect at one hour (n=4). HUVEC ADAMTS-18 induced oxidation fragmentation could be inhibited about 50% by an scFV antibody raised against the ADAMTS-18 (18-mer) peptide as well as GPIIIa49-66 peptide, as well as RGDS (GPIIIa ligand binding site) (n=7).

B1: Recombinant ADAMTS-18: recombinant disintegrin and metalloprotease with thrombospondin-like motifs, expressed with pBudCE4.1 in 293T cells (protein, UniProt Q8TE60 285-1221, looked up)
A disintegrin and …: SAGKSQKGLNVETLVVADKKMVEKHGKGNVTTYILTVMNMVSGLFKDGTIGSDINVVVVSLILLEQEPGGLLINHHADQSLNSFCQWQSALIGKNGKRHDHAILLTGFDICSWKNEPCDTLGFAPISGMCSKYRSCTINEDTGLGLAFTIAHESGHNFGMIHDGEGNPCRKAEGNIMSPTLTGNNGVFSWSSCSRQYLKKFLSTPQAGCLVDEPKQAGQYKYPDKLPGQIYDADTQCKWQFGAKAKLCSLGFVKDICKSLWCHRVGHRCETKFMPAAEGTVCGLSMWCRQGQCVKFGELGPRPIHGQWSAWSKWSECSRTCGGGVKFQERHCNNPKPQYGGLFCPGSSRIYQLCNINPCNENSLDFRAQQCAEYNSKPFRGWFYQWKPYTKVEEEDRCKLYCKAENFEFFFAMSGKVKDGTPCSPNKNDVCIDGVCELVGCDHELGSKAVSDACGVCKGDNSTCKFYKGLYLNQHKANEYYPVVLIPAGARSIEIQELQVSSSYLAVRSLSQKYYLTGGWSIDWPGEFPFAGTTFEYQRSFNRPERLYAPGPTNETLVFEILMQGKNPGIAWKYALPKVMNGTPPATKRPAYTWSIVQSECSVSCGGGYINVKAICLRDQNTQVNSSFCSAKTKPVTEPKICNAFSCPAYWMPGEWSTCSKACAGGQQSRKIQCVQKKPFQKEEAVLHSLCPVSTPTQVQACNSHACPPQWSLGPWSQCSKTCGRGVRKRELLCKGSAAETLPESQCTSLPRPELQEGCVLGRCPKNSRLQWVASSWSECSATCGLGVRKREMKCSEKGFQGKLITFPERRCRNIKKPNLDLEETCNRRACPAHPVYNMVAGWYSLPWQQCTVTCGGGVQTRSVHCVQQGRPSSSCLLHQKPPVLRACNTNFCPAPEKREDPSCVDFFNWCHLVPQHGVCNHKFYGKQCCKSCTRKI
modifications: recombinant, 293T-expressed
notes: recombinant disintegrin and metalloprotease with thrombospondin-like motifs, expressed with pBudCE4.1 in 293T cells
Platelets [1]; concentration not given
  platelet oxidation/fragmentation: induced
Platelets [1]; thrombin 0.5μ/mL, then neutralized with hirudin, n=4
  time of optimum effect of activation by thrombin: one
Platelets [2]
  platelet 12(S)-HETE: induced
